We go through one substance from doi:10.1101/2022.07.02.498517.

Broadly, the stoichiometry N is a count of units in the complex or per binding partner.

The target in the assay is human ATP synthase complex (human (endogenous in HEK293T)). The assay can be described thus: native gel or EMSA. For orientation: A gel shift assay detects complexes by their altered migration in electrophoresis.

Substance human ATP synthase complex yielded a stoichiometry N of 2.
